Measurements published in patent US12043852.

Biological target: omega-dCas9 clone 4 (evolved SpCas9) D10A,H840A,E1219V; residues I122 and D182 also mutated, substitutions not stated (Streptococcus pyogenes) (UniProt Q99ZW2)
Assay: cell_activity
Conditions: E. coli activation

Sequence: GGAGCCCACCGAGUACCUGG / GGAGCCCACCGAGTACCTGGAGG / CCTCCAGGTACTCGGTGGGCTCC [Doench 2 sgRNA (spacer) ; Doench 2 target, AGG PAM]
- activity (luciferase activity) (PAM AGG): 238

Sequence: GGAGCCCACCGAGUACCUGG / GGAGCCCACCGAGTACCTGGGAG / CTCCCAGGTACTCGGTGGGCTCC [Doench 2 sgRNA (spacer) ; Doench 2 target, GAG PAM]
- activity (luciferase activity) (PAM GAG): 186

Sequence: GGAGCCCACCGAGUACCUGG / GGAGCCCACCGAGTACCTGGGTG / CACCCAGGTACTCGGTGGGCTCC [Doench 2 sgRNA (spacer) ; Doench 2 target, GTG PAM]
- activity (luciferase activity) (PAM GTG): 120
